Reference: US20100137214

T1: GSTcle3HV3
T1 chain: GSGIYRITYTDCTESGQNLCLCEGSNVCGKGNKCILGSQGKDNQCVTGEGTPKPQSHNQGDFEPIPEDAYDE


Columns and labels:
[1] = target: AGPCHV3 (UniProt P02763)
[2] = system: HSAHV3
[3] = system: HSACHV3
[4] = system: C-terminally His-tagged hirudin variant 3 (HV3)
[5] = target: HSACHV3; remark: listed apart in the source
[6] = target: AGPCHV3, P02763
[7] = target: T1, GSTcle3HV3

AGPCHV3, P02763, sequence (P02763 whole entry, looked up): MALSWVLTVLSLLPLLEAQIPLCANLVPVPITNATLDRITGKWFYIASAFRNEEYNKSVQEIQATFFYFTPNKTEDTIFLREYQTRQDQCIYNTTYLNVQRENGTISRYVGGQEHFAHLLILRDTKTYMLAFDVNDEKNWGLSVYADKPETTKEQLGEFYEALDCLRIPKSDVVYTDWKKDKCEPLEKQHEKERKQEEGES
C-terminally His-tagged hirudin variant 3 (HV3), sequence (chain, as listed by the source mutant): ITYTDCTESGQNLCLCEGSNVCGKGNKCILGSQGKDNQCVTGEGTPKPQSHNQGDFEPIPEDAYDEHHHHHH

Molecule | rate of thrombin cleavage of a chromogenic substrate, fusion protein 376 nM without plasmin [1] | % thrombin activity (chromogenic substrate) after reaction of HSAHV3 with plasmin [2] | rate of thrombin cleavage of a chromogenic substrate, fusion protein 376 nM without plasmin [3] | rate of thrombin-mediated chromogenic substrate cleavage, starting value for 1500 nM HSACHV3 [3] | rate of thrombin-mediated chromogenic substrate cleavage, end value after 1500 nM HSACHV3 was combined with 600 nM plasmin (HV3 released) [4] | cleavage by plasmin, SDS-PAGE and autoradiography [5] | time- and plasmin-dependent cleavage, Coomassie-stained SDS gel (1500 nM HSACHV3, 600 nM plasmin) [5] | time- and plasmin-dependent cleavage, Coomassie-stained SDS gel (4000 nM AGPCHV3, 600 nM plasmin) [6] | cleavage pattern by SDS-PAGE after plasmin digestion [7]
human α-thrombin | In the absence of plasmin, neither fusion protein had substantial effects upon the thrombin activity | thrombin inhibition was unaffected by the presence of HSAHV3 following reaction with plasmin | In the absence of plasmin, neither fusion protein had substantial effects upon the thrombin activity | The former reduced the rate of thrombin-mediated chromogenic substrate cleavage from 89.9% to 5.5% | The former reduced the rate of thrombin-mediated chromogenic substrate cleavage from 89.9% to 5.5% |  |  |  | 
plasmin (protein) KVYLSECKTGNGKNYRGTMSKTKNGITCQKWSSTSPHRPRFSPATHPSEGLEENYCRNPDNDPQGPWCYTTDPEKRYDYCDILECEEECMHCSGENYDGKISKTMSGLECQAWDSQSPHAHGYIPSKFPNKNLKKNYCRNPDRELRPWCFTTDPNKRWELCDIPRCTTPPPSSGPTYQCLKGTGENYRGNVAVTVSGHTCQHWSAQTPHTHNRTPENFPCKNLDENYCRNPDGKRAPWCHTTNSQVRWEYCKIPSCDSSPVSTEQLAPTAPPELTPVVQDCYHGDGQSYRGTSSTTTTGKKCQSWSSMTPHRHQKTPENYPNAGLTMNYCRNPDADKGPWCFTTDPSVRWEYCNLKKCSGTEASVVAPPPVVLLPDVETPSEEDCMFGNGKGYRGKRATTVTGTPCQDWAAQEPHRHSIFTPETNPRAGLEKNYCRNPDGDVGGPWCYTTNPRKLYDYCDVPQCAAPSFDCGKPQVEPKKCPGRVVGGCVAHPHSWPWQVSLRTRFGMHFCGGTLISPEWVLTAAHCLEKSPRPSSYKVILGAHQEVNLEPHVQEIEVSRLFLEPTRKDIALLKLSSPAVITDKVIPACLPSPNYVVADRTECFITGWGETQGTFGAGLLKEAQLPVIENKVCNRYEFLNGRVQSTELCAGHLAGGTDSCQGDSGGPLVCFEKDKYILQGVTSWGLGCARPNKPGVYVRVSRFVTWIEGVMRNN |  |  |  |  |  | HSACHV3 was cleaved by plasmin over time, reaching near complete conversion | A time- and plasmin-dependent cleavage pattern of both proteins is shown, yielding a single product for HSACHV3 and two products for AGPCHV3 | A time- and plasmin-dependent cleavage pattern of both proteins is shown, yielding a single product for HSACHV3 and two products for AGPCHV3 | plasmin-dependent polypeptide species were detected, one of which co-migrated with unfused GST, and the other, which migrated slightly more rapidly than Pichia pastoris-derived recombinant hexahisitidinylated HV3
